Among the data in paper doi:10.1101/517771 are fold decrease in BLM/EXO1 resection processivity after addition of pRPA and fraction of BLM/DNA2 molecules that stopped resecting DNA upon addition of pRPA values, retold here.

The test has as its target FLAG-BLM (Bloom's Syndrome helicase) (human) (UniProt P54132).
Chain of UniProt P54132 (P54132 whole entry): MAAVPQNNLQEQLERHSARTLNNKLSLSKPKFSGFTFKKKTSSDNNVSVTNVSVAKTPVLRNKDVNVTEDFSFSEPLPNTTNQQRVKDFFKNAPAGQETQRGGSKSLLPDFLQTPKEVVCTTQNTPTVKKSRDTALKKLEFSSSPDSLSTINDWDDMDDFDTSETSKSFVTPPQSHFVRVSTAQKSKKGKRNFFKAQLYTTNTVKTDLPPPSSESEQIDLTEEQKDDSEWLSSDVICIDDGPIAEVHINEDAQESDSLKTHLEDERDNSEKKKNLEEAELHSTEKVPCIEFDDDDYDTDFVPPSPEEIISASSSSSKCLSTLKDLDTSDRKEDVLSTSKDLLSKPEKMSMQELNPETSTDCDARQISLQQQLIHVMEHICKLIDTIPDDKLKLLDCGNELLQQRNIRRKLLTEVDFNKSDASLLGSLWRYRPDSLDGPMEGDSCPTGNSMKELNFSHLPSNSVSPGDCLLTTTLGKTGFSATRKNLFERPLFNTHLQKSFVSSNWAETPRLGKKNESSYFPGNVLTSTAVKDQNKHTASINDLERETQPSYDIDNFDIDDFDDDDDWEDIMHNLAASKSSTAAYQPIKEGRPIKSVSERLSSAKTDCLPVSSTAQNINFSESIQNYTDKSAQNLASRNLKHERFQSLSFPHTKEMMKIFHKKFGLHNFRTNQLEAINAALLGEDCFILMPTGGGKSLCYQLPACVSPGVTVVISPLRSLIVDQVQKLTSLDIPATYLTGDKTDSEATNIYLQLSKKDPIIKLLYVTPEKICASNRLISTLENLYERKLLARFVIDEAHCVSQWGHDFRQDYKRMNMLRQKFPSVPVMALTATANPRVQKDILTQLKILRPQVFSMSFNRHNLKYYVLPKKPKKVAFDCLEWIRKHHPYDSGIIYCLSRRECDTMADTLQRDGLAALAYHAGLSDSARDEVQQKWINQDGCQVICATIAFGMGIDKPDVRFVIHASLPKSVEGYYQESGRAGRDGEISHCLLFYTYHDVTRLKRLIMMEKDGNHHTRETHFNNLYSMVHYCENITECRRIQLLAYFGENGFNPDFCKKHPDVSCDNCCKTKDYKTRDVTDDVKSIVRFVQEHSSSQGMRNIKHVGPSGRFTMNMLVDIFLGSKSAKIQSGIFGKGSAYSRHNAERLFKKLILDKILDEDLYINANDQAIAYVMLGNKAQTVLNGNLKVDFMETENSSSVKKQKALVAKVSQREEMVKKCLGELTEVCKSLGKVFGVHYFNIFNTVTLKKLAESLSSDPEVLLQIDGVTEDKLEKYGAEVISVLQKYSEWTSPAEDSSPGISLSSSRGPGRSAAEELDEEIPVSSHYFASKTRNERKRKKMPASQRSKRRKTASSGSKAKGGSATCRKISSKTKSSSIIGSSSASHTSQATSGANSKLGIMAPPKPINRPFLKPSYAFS

In turn, “phosphorylated human RPA (pRPA) (from UniProt P27694 1-616; P15927 1-270) (complex)” had a fold decrease in BLM/EXO1 resection processivity after addition of pRPA of 3 fold and a fraction of BLM/DNA2 molecules that stopped resecting DNA upon addition of pRPA of 30%.
